From paper PMC10665462 (2023)
Each block holds one binder with its values, some of them ahead of it.

Target: BTN3A1 BFI (JM+B30.2) (Homo sapiens, UniProt O00481)
Assay: ITC

BTN3A1 BFI (JM+B30.2), sequence (O00481 272-513): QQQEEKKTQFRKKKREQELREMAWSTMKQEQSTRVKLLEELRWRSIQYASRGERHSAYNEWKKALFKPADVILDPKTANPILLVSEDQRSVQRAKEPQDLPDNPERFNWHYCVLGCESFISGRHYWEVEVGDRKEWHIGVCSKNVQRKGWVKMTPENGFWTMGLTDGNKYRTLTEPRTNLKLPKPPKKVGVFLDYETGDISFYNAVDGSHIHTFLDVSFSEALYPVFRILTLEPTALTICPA

- Kd: 0.78 µM
B1: BTN2A1 ID271 (JM+B30.2) (protein)
chain: KLQKEKKILSGEKEFERETREIALKELEKERVQKEEELQVKEKLQEELRWRRTFLHAVDVVLDPDTAHPDLFLSEDRRSVRRCPFRHLGESVPDNPERFDSQPCVLGRESFASGKHYWEVEVENVIEWTVGVCRDSVERKGEVLLIPQNGFWTLEMHKGQYRAVSSPDRILPLKESLCRVGVFLDYEAGDVSFYNMRDRSHIYTCPRSAFSVPVRPFFRLGCEDSPIFICPALTGANGVTVPEEGLTLHRVGTHQSL
modifications: HMBPP

- Kd: 190 µM
B2: BTN2A1 ID271 (JM+B30.2) (protein)
chain: B1 chain
modifications: 4-M-HMBPP
